Blank lines part the entries; values can stand above or below the binder they belong to.
Columns and labels:
[1] = biological target: T1, human PVRIG-his (AcroBiosystems, Cat NO. PVG-H52H4) (human, UniProt Q6DKI7 41-171, limits assumed); assay: competition ELISA on coated human PVRIG-his; blocked ligand human PVRL2-mFc
T1 construct: treated as the same protein; also called human PVRIG-His protein; Human PVRIG-His, Acro C227P1-9ARF1-T4
T1 sequence (looked up): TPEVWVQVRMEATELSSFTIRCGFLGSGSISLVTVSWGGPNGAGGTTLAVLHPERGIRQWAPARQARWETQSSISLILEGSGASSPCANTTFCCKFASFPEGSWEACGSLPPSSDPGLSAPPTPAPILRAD
Method: The ELISA plate was pre-coated with 100 μL/well of 0.5 μg/mL human PVRIG-his protein (AcroBiosystems, Cat NO. PVG-H52H4). The tested anti-PVRIG antibodies were diluted from the highest concentration of 16 nM (two-fold concentration). The diluted antibodies were mixed with 18 ng/ml human PVRL2-mFc (AcroBiosystems, Cat NO. CD2-H5257) in equal volume, added into the plate (100 μL/well), and incubated with shaking at room temperature for 2.0 hours. […] A HRP substrate, TMB (Thermo, Cat NO. 34029) was added into wells after washing the plate again for color development. After adding a termination solution to terminate the reaction, the absorbance value was read by a microplate reader (MD i3×). An inhibiting curve was drawn with concentration of antibodies as the abscissa and the corresponding OD value as the ordinate. The IC50 value was calculated by using a Four Parameter Logistic Fit (GraphPadPrism9). The smaller the IC50 value, the stronger the ability of the antibodies inhibits the binding between PVRIG and PVRL2. The positive and negative controls are the same as in Example 8.

[2] = biological target: T2, human PVRIG on FlpinCHO-PVRIG cells (human, UniProt Q6DKI7 41-326); assay: FACS, FlpinCHO-PVRIG cells
T2 construct: whole, on cells; also called FlpinCHO-hPVRIG; FlpinCHO-human PVRIG
T2 sequence (looked up): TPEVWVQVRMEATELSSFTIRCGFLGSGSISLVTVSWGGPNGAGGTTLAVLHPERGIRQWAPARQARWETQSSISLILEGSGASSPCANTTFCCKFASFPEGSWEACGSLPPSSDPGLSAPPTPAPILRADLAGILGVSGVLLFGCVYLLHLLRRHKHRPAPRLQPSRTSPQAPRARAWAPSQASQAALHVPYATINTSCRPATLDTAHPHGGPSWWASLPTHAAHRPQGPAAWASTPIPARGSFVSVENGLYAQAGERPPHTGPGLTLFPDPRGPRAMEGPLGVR
Method: After discarding the cell culture medium, the cells were rinsed with PBS and digested for 8-10 minutes by adding 1 mL Versene (Gibico, 15040-066). The Ham's F12 (Gibico, 21127-022) complete medium containing 10% FBS was then added to terminate the digestion and acquire cell suspension. After counting with a cell counter (Beckman Coulter, Vi-CELL), an appropriate amount of cell suspension was centrifuged at 350×g to remove the supernatant, washed twice with PBS, stained with Zombie violet (Biolegend, 423114) and incubated at room temperature for 20 minutes. After incubation, the cells were added with staining buffer (2% FBS+PBS) to stop staining, centrifuged at 350×g to remove the supernatant, washed twice and resuspended with staining buffer to a density of 2×10⁶ cells/mL. The cells were plated into a 96-well plate (50 μL of cell suspension per well) for further use. The antibodies were diluted from the highest concentration of 46 nM (two-fold concentration) with staining buffer by 3.3-fold serial dilution. The diluted antibodies were added to the well containing 50 μL of cell suspension. The plate was placed on a microplate shaker at 400 rpm for 1 minute to fully mix the antibodies and cells, and then incubated at 4° C. for 30 minutes. After the incubation, the cells were washed twice with staining buffer (200 μL per well) and centrifuged at 350×g for 5 minutes to discard the supernatant. The PE goat anti-human IgG Fc antibody (ebioscience, 12-4998-82) was diluted 250 times with staining buffer, added into the washed wells (100 μL per well), mixed well, and stained at 4° C. for 30 minutes. After staining, the cells were washed twice with staining buffer, finally resuspended with 200 μL staining buffer and analyzed by flow cytometry (BD, Canto II). The stronger the signal, the stronger the ability of the antibodies binds to PVRIG. An antibody binding curve was drawn with concentration of antibodies as the abscissa and the corresponding Mean Fluorescence Intensity (MFI) as the ordinate. The AUC value of the curve was calculated by using a Four Parameter Logistic Fit (GraphPadPrism9).

[3] = biological target: T3, human PVRIG-mFc protein (Acro, PVG-H5253) (human, UniProt Q6DKI7 41-171, limits assumed); assay: competition FACS; blocked: human PVRIG-mFc binding to CHO-K1-CD112 cells
T3 construct: bought reagent; also called PVRIG-ECD-mFc
T3 sequence (looked up): T1 sequence (looked up)
Method: After incubation, the cells were added with staining buffer (2% FBS+PBS) to stop staining, centrifuged at 350×g to remove the supernatant, washed twice and resuspended with staining buffer to a density of 1×10⁶ cells/mL. The cells were plated into a 96-well plate (50 μL of cell suspension per well) for further use. A working solution of human PVRIG-mFc protein (Acro, PVG-H5253) prepared with staining buffer, 1 μg/mL (four-fold concentration), was added into a 96-well plate (50 μL PVRIG-mFc working solution per well). […] The diluted antibodies were added to the well containing 50 μL of PVRIG-mFc. The plate was placed on a microplate shaker at 400 rpm for 1 minute to fully mix the antibodies and PVRIG-mFc proteins, and then incubated at 4° C. for 30 minutes. After the incubation, the cell suspension prepared above (100 μL) was added into the wells, gently mixed with the pipette tip and incubated at 4° C. for 30 minutes. After the incubation, the cells were washed twice with staining buffer (200 μL per well) and centrifuged at 350×g for 5 minutes to discard the supernatant. The PE goat anti-mouse IgG Fc antibody (Biolegend, 405337) was diluted 250 times with staining buffer, added into the washed wells (100 μL per well), mixed well, and stained at 4° C. for 30 minutes. After staining, the cells were washed twice with staining buffer, finally resuspended with 200 μL staining buffer and analyzed by flow cytometry (BD, Canto II). The weaker the fluorescence signal, the stronger the ability of the antibodies blocks the binding of CHO-K1 human CD112 cells to the PVRIG-mFc protein. An antibody binding curve was drawn with concentration of antibodies as the abscissa and the corresponding Mean Fluorescence Intensity (MFI) as the ordinate. The IC50 value of the antibodies and the AUC value of the binding curve were calculated by using a Four Parameter Logistic Fit (GraphPadPrism9). The smaller the IC50 value and AUC value, the stronger the ability of the antibodies competes with CHO-K1-CD112 cells to bind to human PVRIG-mFc protein.

IC50 (read off the curve) [1]: ~0.8 nM
EC50 (read off the curve) [2]: ~0.1 nM
IC50 (read off the curve) [3]: ~0.9 nM
B1: PVRIG-A11 (VHH)
VHH: QLQLVESGGGLVQPGGSLRLSCAASGFTDDYYAIGWFRQAPGKEREGVSCISGSGGSTNYEDSVKGRFAISRDNAKNMVYLQMNDLKPEDTAVYYCAADPFWSAPCTGHNDRYFDVWGQGTLVTVSS
notes: tested as VHH-hinge-CH2-CH3 (human IgG1-Fc); not shown: human IgG1 hinge-CH2-CH3

IC50 (read off the curve) [1]: ~0.5 nM
EC50 (read off the curve) [2]: ~0.3 nM
IC50 (read off the curve) [3]: ~1 nM
B2: PVRIG-A117 (VHH)
VHH: EVQVVESGGGLVQAGGSLRLSCTASEHIYDLYIMGWYRQAPGKDRELVATITYTGSIYIADSVKDRFTISRGNAKNTVSLQMSGLKPEDTAVYYCNADPSGLGRKLYWGQGTQVTVSS
notes: as for B1
